Laboratory results reported in US20050019801A1, “Stem cell-based methods for identifying and characterizing agents” (Curis, Inc., priority 2003, published 2005).
Entries after “also recorded” stand apart in the source; their conditions may differ.

B1: noggin: a BMP antagonist (protein, UniProt Q13253 28-232, looked up)
Noggin: QHYLHIRPAPSDNLPLVDLIEHPDPIFDPKEKDLNETLLRSLLGGHYDPGFMATSPPEDRPGGGGGAAGGAEDLAELDQLLRQRPSGAMPSEIKGLEFSEGLAQGKKQRLSKKLRRKLQMWLWSQTFCPVLYAWNDLGSRFWPRYVKVGSCFSKRSCSVPEGMVCKPSKSVHLTVLRWRCQRRGGQRCGWIPIQYPIISECKCSC
B2: gremlin: a BMP antagonist (protein, UniProt O60565 25-184, looked up)
Gremlin-1: KKKGSQGAIPPPDKAQHNDSEQTQSPQQPGSRNRGRGQGRGTAMPGEEVLESSQEALHVTERKYLKRDWCKTQPLKQTIHEEGCNSRTIINRFCYGQCNSFYIPRHIRKEEGSFQSCSFCKPKKFTTMMVTLNCPELQPPTKKKRVTRVKQCRCISIDLD
B3: sFRP2: a Wnt antagonist (protein, UniProt Q96HF1 25-295, looked up)
Secreted frizzled-related …: LFLFGQPDFSYKRSNCKPIPANLQLCHGIEYQNMRLPNLLGHETMKEVLEQAGAWIPLVMKQCHPDTKKFLCSLFAPVCLDDLDETIQPCHSLCVQVKDRCAPVMSAFGFPWPDMLECDRFPQDNDLCIPLASSDHLLPATEEAPKVCEACKNKNDDDNDIMETLCKNDFALKIKVKEITYINRDTKIILETKSKTIYKLNGVSERDLKKSVLWLKDSLQCTCEEMNDINAPYLVMGQKQGGELVITSVKRWQKGQREFKRISRSIRKLQC
B4: dkk1: a Wnt antagonist (protein, UniProt O94907 32-266, looked up)
Dickkopf-related protein 1: TLNSVLNSNAIKNLPPPLGGAAGHPGSAVSAAPGILYPGGNKYQTIDNYQPYPCAEDEECGTDEYCASPTRGGDAGVQICLACRKRRKRCMRHAMCCPGNYCKNGICVSSDQNHFRGEIEETITESFGNDHSTLDGYSRRTTLSSKMYHTKGQEGSVCLRSSDCASGLCCARHFWSKICKPVLKEGQVCTKHRRKGSHGLEIFQRCYCGEGLSCRIQKDHHQASNSSRLHTCQRH
B5: PTN: a neurotrophic factor (protein, UniProt P21246 33-168, looked up)
Pleiotrophin: GKKEKPEKKVKKSDCGEWQWSVCVPTSGDCGLGTREGTRTGAECKQTMKTQRCKIPCNWKKQFGAECKYQFQAWGECDLNTALKTRTGSLKRALHNAECQKTVTISKPCGKLTKPKPQAESKKKKKEGKKQEKMLD

test system: Mouse embryonic stem cells (embryoid bodies); test: Combinations of agents promoting motor neuron differentiation from embryoid bodies, HB9 expression; assay type: cell-based; conditions: agent plus the same sub-threshold concentration of small molecule hedgehog agonist (Ag1.3)
Experimental: BMP antagonists and Wnt antagonists synergized with hedgehog agonists to promote motor neuron differentiation from embryoid bodies. Briefly, mouse embryonic stem cells were cultured, as described above.

Row | Molecule | motor neuron differentiation, as measured by expression of HB9
1 | B1 | promoted motor neuron differentiation
2 | B2 | promoted motor neuron differentiation
3 | B3 | promoted motor neuron differentiation

test system: (HB9-GFP)-mouse embryonic stem cells; test: Motor neuron differentiation of (HB9-GFP)-mouse embryonic stem cell embryoid bodies, GFP by fluorescent or confocal microscopy; assay type: cell-based; conditions: one day 100 nM RA and 50 ng/ml Sonic hedgehog protein, then three days with agent; fluorescent microscopy
Experimental: Briefly, mouse embryonic stem cells expressing GFP under the control of the HB9 promoter were cultured to confluence, trypsinized, and allowed to reaggregate to form embryoid bodies. The embryoid bodies were treated for one day with 100 nM RA and 50 ng/ml Sonic hedgehog protein. Subsequently, the embryoid bodies were cultured for three days with a previously identified hedgehog, small molecule agonist. Cultured embryoid bodies were analyzed by fluorescent and bright filed microscopy (FIG. 2).
As outlined above, the stem cell based methods of the invention can be used in many ways including, but not limited to, as a primary screen to identify agents that promote differentiation without regard to the mechanism of action; as a primary screen to identify agents that promote differentiation and that may act by agonizing or antagonizing a particular signaling pathway; or as a secondary screen to confirm that an agent that agonizes or antagonizes a particular signaling pathway also functions to promote differentiation along a particular lineage. […] Briefly, several small molecules were previously identified in a screen to identify agonists of the hedgehog signaling pathway. […] Mouse embryonic stem cells expressing GFP under the control of the HB9 promoter were cultured to confluence, trypsinized, and allowed to reaggregate to form embryoid bodies. The embryoid bodies were treated for one day with 100 nM RA and 50 ng/ml Sonic hedgehog protein. Subsequently, the embryoid bodies were cultured for three days with one of three previously identified hedgehog, small molecule agonists. Cultured embryoid bodies were analyzed by fluorescent microscopy for expression of GFP (FIG. 3).
Mouse embryonic stem cells were cultured and treated as described above. Following three days of culture in the presence of the hedgehog agonist, embryoid bodies were analyzed by confocal microscopy to allow analysis of sections throughout the embryoid body. Confocal images were compared to confocal images of embryoid bodies cultured in the absence of hedgehog agonist.
By way of example, known antagonists of BMP signaling include noggin, chordin, follistatin, cerberus, Dan, gremlin, ectodin, sclerostin, and ventroptin. Known antagonists of Wnt signaling include sFRP, WIF, dkk, and Cerberus. Briefly, mouse embryonic stem cells expressing GFP under the control of the HB9 promoter were cultured to confluence, trypsinized, and allowed to reaggregate to form embryoid bodies. The embryoid bodies were treated for one day with 100 nM RA and 50 ng/ml Sonic hedgehog protein. Subsequently, the embryoid bodies were cultured for three days with one of the following: 98 (a small molecule hedgehog agonist), chordin (a BMP antagonist), noggin (a BMP antagonist), gremlin (a BMP antagonist), Dan (a BMP antagonist), PTN (a neurotrophic factor), sFRP2 (a Wnt antagonist), dkk1 (a Wnt antagonist). Cultured embryoid bodies were analyzed by fluorescent microscopy for expression of GFP (FIG. 9).
Embryoid bodies were differentiated as described above for FIG. 9. […] Note, however, the morphological differences among cells types differentiated using each agent. Embryoid bodies treated with a Wnt antagonist were flatter than embryoid bodies treated with a BMP antagonist.

Row | Molecule | motor neuron differentiation, as measured by expression of the HB9 promoter-driven transgene (GFP)
4 | B1 | robustly promoted motor neuron differentiation; also recorded: differentiated along a motor neuron lineage
5 | B2 | robustly promoted motor neuron differentiation; also recorded: differentiated along a motor neuron lineage
6 | B3 | differentiated along a motor neuron lineage
7 | B4 | robustly promoted motor neuron differentiation; also recorded: differentiated along a motor neuron lineage
8 | B5 | robustly promoted motor neuron differentiation

same assay, conditions: one day 100 nM RA and 50 ng/ml Sonic hedgehog protein, then three days with agent; fluorescent microscopy; listed as sFRP

Row | Molecule | motor neuron differentiation, as measured by expression of the HB9 promoter-driven transgene (GFP)
9 | B3 | robustly promoted motor neuron differentiation
